The nature of the data set: soluble on expression in E. coli; label from the status in PepcDB or PDB records.
In the case of “MGSDKIHHHHHHARPQEKIKKKEISQSYSVSAGDRLQVENRYGNITVTHWNQNTVAIRVEVECKARSEERAQENLDRIQIETKKIGGIVSAVTTIKKEMNSNSNNESMTINYYIQMPPKLAADLNQKYGNINLPSDNNGNMDIHVKYGNLNAGNFTANAMIEAKYGNIEVGNLQDAQLDLGYVGTAKIRNAKDLTIDSKYSNLDIQDIQSLRMEIKYGNLTIESVSRLDMEIKYSDAKIGTLKDALNVSSLSYSNLKIRNLSPSFSKVNVESHYGNLEVALPAKTSFRIVAENMKYSSCDVNGFNITRKHFDDEDRDKNYTYEINGGKQPTIHFEGNRYGNLKVKAN”, the “soluble on expression in E. coli” value is “not soluble”. As for “MKYSSFLKQAEENLVPIFSEIDAKVKENLYKVIEAFRHHRVGVQHFAGVSGYGHDDLGRDTLDGVFAQVMGAESAAVRVQFVSGTHAIACALYGILRPGDELLSAVGSPYDTLEEVIGLRGSCQGSLADFNISYRQLPLTAAGTVDWQGLETAVRPETRLVLIQRSCGYSWRPSLAIADIARIIEIVKAQNPRTLCFVDNCYGEFIETVEPTAIGVDLMAGSLIKNPGGTIVTAGGYLAGKEEWVEAGAYRLTAPGIGLEHHHHHH”, the “soluble on expression in E. coli” value is “not soluble”.

As for “MIIRNVRILICMNTIYYEAHNNLYLNLTNRCSADCIFCIRNFADGVYGYNLRLSKEPSTEEIIEALEGLDLSKYREIVFTGLGEPTLRLDVVLAVTRWLKNQGLRVRLDTNGHAALINPKLDVIAELKKAGLDSVSVSLNAESEEKYNKLCRPVHKNAYRAMLDFVRGAKEAGISTRVTVVKIPEIDVEKCRKVSEELGSDFHIRLLSEAASQEIRE”, the “soluble on expression in E. coli” value was “not soluble”. As for “MAVRKLWKTVVQLFSKSKSEECNTEAGTMEVSFLKYGVRGLNADCSYVKSQCIKLSECECLYTFASDVCKEDFHNSEEMKVFVVQHSQEMVDGTDLFVHAEESV”, the entry is “not soluble”; as for “GSVRPVVGEIAANSIAAEAQIAPGTELKAVDGIETPDWDAVRLQMVDKIGDESTTITVAPFGSDQRRDVKLDLRHWAFEPDKEDPVSSLGIRPRGPQ”, “soluble”. In the case of “MTKIFAKEWNMSDPGRALASFFATLPTRPQLLALGEPNHTDDAFPAQRNRLFRTLVEEYGFRSIALESDILAGQRVNAYVTGGADDLEEVMRTGFSHDFGRRAANRELVGWLRDFNAGRSADEQVHFYGFDPPMENLWAASPRASLLTLHALLARQVPALPVSAATIERLCGDDARWANPAAGMDAAQSIGHSDEARQLRVLTDDLLHRLETGAPGLAEQPDFWEAQLAARTAAGLLRYHAVMADPAPDRIARMLAARDLLMAGHLLAIAEREQRCGPTLVFAHNLHLQRPLSRMKMGAQKIGAQTLDWWGAGAHVSRRLGERYAFIASYPGAAEETFLVPSSELTEAAATQLSVRDDGQPYSFPFKLSDLPFLNGALLVGQFLEHHHHHH” it was “soluble”; in that of “MSLENTEKLKNSKEVIAYIAECFPNCFTLEGEAKPLKIGIFQDLADRLNDDPKVSKTQLRAALRQYTSSWRYLHGVKPGATRVDLDGNPCGELEEQHVEHAQAALAESKARVEARRKEQVKKVREEAKANKPKAKKPQQARRPQNAPKVEKKPVETRALAASELNVGNQVNVNMGKGNMAATIVEVNKEDVRVQLANGLQMVVKAEHLRAEGGSHHHHHH”, “soluble”; in that of “MAGDCSSHWPVTNPPRGYLSSRRLLEHSTRSIGQTVIHTRDPCDGTGMGVAVIGASMTKFGQRDVWIRELLSQAGEECLTDAGVAPDDVEHLYVSNMASGEFEGQTGIMNLLAHDLGVLPAYSERVDQTSSSGGAGIYEAWQSVASGASEMTLLVGGEKMTHKTTGQATDIIASITHPDEYKHGVTLPSFAGMTARHYLERFDAPRESLARVAVKNHRNGVDNPKAQFQKEITMEKALESPIIADPLRLYDFCPITDGSAALMFTTEERAKEITDEYALVSGIGGATDTHVVHERDDPTIMGGVVESSKQAYEMAGLGPNDLDVAELHDMFTILEFLQLEGIGVADQGTAWEMAMDGVTAKDGELPINTSGGLKSKGHPLGASGVAQGVEIYEQLVGEAGPRQVEADTALACNVGGFGNCVITTIMEAAE”, “not soluble”.

As for “MKAAAREEAKNIKLLETTEEDKQKNFLFLRLWDRNMDIAMGWKGAQAMQFGQPLVFDMAYENYMKRKELQNTVSQLLESEGWNRRNVDPFHIYFCNLKIDGALHRELVKRYQEKWDKLLLTSTEKSHVDLFPKDSIIYLTADSPNVMTTFRHDKVYVIGSFVDKSMQPGTSLAKAKRLNLATECLPLDKYLQWEIGNKNLTLDQMIRILLCLKNNGNWQEALQFVPKRKHTGFLEISQHSQEFINRLKKAKT”, the “soluble on expression in E. coli” value was “not soluble”. In the case of “SFPNRRIVTTVFNDEGIQFLVTRYIKALNPPQQLLDIFLHNSNATFDLIARFVSLIPFVPNTPDENDGSDIWMTSEHCISLAIGNKEEHAILLCNFFLYFGKKALVLLGTSVLEGHVAYVVTQETNEYLLWNPSTGQCYKQFDPFCPLKSVDCLFDDRNVWFNIQQNNTPMAVFFDYSKESFWKQLLPKNVQGTKIQSIQVTGFPIQMPYIDVQSIIDAVYQTGIHSAEFPQTEFALAVYIHPYPNNILSVWVYLASLVQHQ”, the “soluble on expression in E. coli” value was “soluble”. As for “MDHALFTHFVGRPRHCRLEMLILDEQVSKRSWDTTVYHRRRKHLPRRRAPCGPQRPAEIPKRRKKAAVLLFWHDLCWLFRRLFFPREDSEPLMSDPARSPEEEELEHHHHHH”, the entry is “not soluble”; as for “MSLSIADNLKQVLAELPQGVRLVAVSKFHPNEAIEEAYQAGQRIFGESKVQEMTAKYETLPKDIEWHFIGHLQTNKIKYMIPYVEMIHGIDTYKLLAEVNKQAAKAGRIVNCLIQIHVAQEETKFGFSPEECKDMLHAGEWKELSHIRICGLMGMASNTDDVEQINREFCLLNRLFQEIKANWFADSDTFRELSMGMSHDYHEAIAAGSTLVRVGSKIFGERNYNTEGHHHHHH”, “soluble”; as for “MSGRPFLLIHTFKDISKFREGDRDYSDIEVRYNIPWRLRIFKKEGFLGLKLYCEKEECIETKKWTFKTKFTMKLVAVDLPSSQSDFNNSFLLKHTFNNISKFVERDSDYSDAEDHYNIAWKIRILKYEECLGIYLDCQKEIYEGRKWSIKCEFKSSLISASGKFYSVQYTDVFDNRDSSMGSSTFISWIDMEKEYVTNDDCIDVTIHAKIISITDEPCEMKTFALSHTIKNMSSIREGEDYDTDTQYRFNIPWSLKILNRNEFSGLFIRCEKQLCKSRKWSIETEYQLKIVSPNGRSELFGGTYVFDNPNIYGWHIIRWSSLEDRYIVNDTLTVEAQVTIVKMTGIEDETPIEKPSGIVIPVGNQEFSLERWMEMAFDH”, “not soluble”. In the case of “EVQLLESGGGLVQPGGSLRLSCAASGFTFEEYAMLWVRQAPGKGLEWVSGINARGYTTYYADSVKGRFTISRDNSKNTLYLQMNSLRTEDTAVYYCAKPWYPFMASKGSEFDYWGQGTLVTVSSAAALEIKRASQPELAPEDPEDVEHHHHHH” it was “soluble”; in that of “MAHHHHHHMPPPLRSKAESVQREEVCQMVEPKRSMSVRDTLYGQLEFPPVIRILTNSPVVQRLRDLKQLGNSFYVYPGATHSRFEHSLGVCYLGMELYRSIVDGHREEHRDFGVPEIANLTREAAQKDMHCIGIAGLCHDLGHGPLSHLFESFVRSSARPEEVQLRKWSHEQASIMLLRKMWLENETELAELGFTESDLRYVELLINGLAPGKAWPDNVGRPKWARFTTEIIANKRSGLDVDKIDYIQRDSVACLGTPTFVSMSRLFQGARVVVGDNDETSIGYPDKLDGVIEEIFLARSHLHRIVYQHRVTKVIDLMTLDALRAAGDVFEVSNGKDGVMPLRSCVLHPDFYVHASDWIVLAILHGSNRTMAESWGSGASAEHRREKLAEACRILQRIHSRHLYTTIGSYRHSEQTLINAGRLNSVEGSSQEVKREVMIHELLSDIEVTNLDLSVKLREWSRQHNGMTAMEILQAEITQTAGDMDKKHNPVSATYFFNPRQSTHCRVEPHFSCNVTTTLFVKTGPVSSLVVVCRMPLTPQEKESLRVSFTSVADRLGKTDASSFSCTPMSQRGRAAESSQQAASVARDESAATPNHSLAGGERLTSSVSGGYPAAKRLRLDLDTQRSRRDDFDVDQSSEGVLQNDATTSSLELVTAAGYGQVGEKGQDDDDGEETDILSFS”, “not soluble”. As to “GMLFESINTGCLDGNDTPWMPFAPYSNDVMVKYFKIDPVRGETITLLKAPAGMEMPRHHHTGTVIVYTVQGSWRYKEHDWVAHAGSVVYETASTRHTPQSAYAEGPDIITFNIVAGELLYLDDKDNIIAVENWKTSMDRYLNYCKAHGIRPKDLSTFEG”, the “soluble on expression in E. coli” value is listed as “soluble”. For the sequence “MCETCLIVIMDSSHDFSFADTFALQVATWFSDVFAQPTVVQRQAWAAISAGENALVVAPTGSGKTLAAFLWALNELVQGSGQTALLSRQAAGSAEVEASRAKGVKVVYISPLKALGVDVENNLRAPLTGINQVAARLGIDQSDITVGVRSGDTPASERSKQVRNPPDILITTPESLYLMLTSKARSILTTVDTVIVDEIHAMAGTKRGVHLALSLERLEHLAAQPVQRIGLSATVRPLDVVARFLGGDRPVEVINPPLEKKWQLAVHVPVDDMSDLPTPEPVSEIGEATIDDPLGLTTQPEGFAESALPAQGSMWTFIEQDVFDEVMEHRSTLVFVNSRRTAERLTSRLNELYAQRFQPEALSPALRRPPAQLMKSIDIAGEATAIIARAHHGSVSKDERALTEKMLKQGELRAVVSTSSLELGIDMGAVDKVIQVESPPSVASGLQRVGRAGHVVGAVSHGSFYPKHRADLVQTAVTVGRMTEGLIEELHVPTNALDVLVQHTVAAVAMDDLDVEDWYATVVRAYPYRDLPREAFDAAIDLTAGVYPSTDFAELRPKVIYDRITGTLSARPGAQRTAVINGGTIPDRGMFGVFLVGSGESGAPRRVGELDEEMVYESRVGDVFTLGASSWRIEEINKDQVLVTPAPGHTGRLPFWTGDQAGRPAELGKALGAFRRTLVADPSVVEGMGLDVRARSNVVAFIQQQQESTGVVPDEVTLVLERFRDELGDWRVVLHSPYGRGVNAAWALVAGAAFSQRTGMDAQPVASDDGIVLRVPESDAEPGADLFEIDPDTVEELVAQQVGNSALFAARFRECAARALLLPSRTPGKRAPLWQQRQRAAQLLDVARKYPSFPIVLETVRECLHDVYDLDALVELAAALKLRKVRIAEVTTQQP”, the “soluble on expression in E. coli” value is listed as “not soluble”. As to “MGSDKIHHHHHHMKVFFVVDIKSGKVVAGKGGERESYPPITAISRLVSSDDALKVIEEIKPRFLYAADLDRIVGLGDNFSLLSKLSKRVEELIADCGFRSPEELEKLPFTPVVGTETFDITQLDRKCYVSLDFKEKFLDASGKFESWEEVVKFLNSFDLYGLIVLPIHAVGAMKPDLSVLTKTLELSEHPVMLGGGISGVEDLERLKEMGCSGVLVATAVHKGKIPLDVVRKGKF”, the “soluble on expression in E. coli” value is given as “not soluble”. As to “MGSDKIHHHHHHMTMKTRDKILLSSLELFNDKGERNITTNHIAAHLAISPGNLYYHFRNKSDIIYEIFQEYEKLVDYYLDIPEDRPITLEDMTFYLESVFDGLWSYRFFHRDLEYLLDSDPRLRQDYREFTNRCLAAINRIFAKLADAGIIQPQPEDLRSAMSLNVWLVITNWMAFLKTAHAAEEPASLSLTELKQGIYQVLTLEVPYLTPEYRERVLALREKYRPTLPEAQGISGVEA”, the “soluble on expression in E. coli” value is given as “not soluble”. With “MGHHHHHHSHMTAYSVGMGAEIQLCSHPIGLSKNQSRNPTKTLDSAKILACSLAQSKQPIRWEADPYNNIVYSIYYMELTLPTTPCRMLPQYQEKYGAVGRGTPYWIYYRKTLYLEIPLSERVGLKGGDTKMGIQDGTHQRDPPFYKPTPPPHIPPVLEKHTGWSYLCGYTWWTP”, the “soluble on expression in E. coli” value is listed as “not soluble”.

The values above are taken from the DeepSol protein solubility set.
